The values that follow come from publication PMC3406685 (The Journal of Biological Chemistry, 2012).

Assay [1] deals with triple-helical peptide II-27-C (II-27-derived sequence with GVOGEA within (GPP)5 hosts) (O in the letters is hydroxyproline). Description: real-time label-free cell adhesion.
Assay [2] has as its target triple-helical peptide II-27-B (II-27-derived sequence with GVOGEA within (GPP)5 hosts) (O in the letters is hydroxyproline). Kind of assay: real-time label-free cell adhesion.

B1: integrin α1β1 on rat pheochromocytoma PC12 cells (receptor, rat (endogenous in PC12))
chain 1: FNVDVKNSMSFSGPVEDMFGYTVQQYENEEGKWVLIGSPLVGQPKARTGDVYKCPVGRERAMPCVKLDLPVNTSIPNVTEIKENMTFGSTLVTNPNGGFLACGPLYAYRCGHLHYTTGICSDVSPTFQVVNSFAPVQECSTQLDIVIVLDGSNSIYPWESVIAFLNDLLKRMDIGPKQTQVGIVQYGENVTHEFNLNKYSSTEEVLVAANKIGRQGGLQTMTALGIDTARKEAFTEARGARRGVKKVMVIVTDGESHDNYRLKQVIQDCEDENIQRFSIAILGHYNRGNLSTEKFVEEIKSIASEPTEKHFFNVSDELALVTIVKALGERIFALEATADQSAASFEMEMSQTGFSAHYSQDWVMLGAVGAYDWNGTVVMQKANQMVIPHNTTFQTEPAKMNEPLASYLGYTVNSATIPGDVLYIAGQPRYNHTGQVVIYKMEDGNINILQTLGGEQIGSYFGSVLTTIDIDKDSYTDLLLVGAPMYMGTEKEEQGKVYVYAVNQTRFEYQMSLEPIRQTCCSSLKDNSCTKENKNEPCGARFGTAIAAVKDLNVDGFNDVVIGAPLEDDHAGAVYIYHGSGKTIREAYAQRIPSGGDGKTLKFFGQSIHGEMDLNGDGLTDVTIGGLGGAALFWARDVAVVKVTMNFEPNKVNIQKKNCRVEGKETVCINATMCFHVKLKSKEDSIYEADLQYRVTLDSLRQISRSFFSGTQERKIQRNITVRESECIRHSFYMLDKHDFQDSVRVTLDFNLTDPENGPVLDDALPNSVHEHIPFAKDCGNKERCISDLTLNVSTTEKSLLIVKSQHDKFNVSLTVKNKGDSAYNTRTVVQHSPNLIFSGIEEIQKDSCESNQNITCRVGYPFLRAGETVTFKIIFQFNTSHLSENAIIHLSATSDSEEPLESLNDNEVNISIPVKYEVGLQFYSSASEHHISVAANETIPEFINSTEDIGNEINVFYTIRKRGHFPMPELQLSISFPNLTADGYPVLYPIGWSSSDNVNCRPRSLEDPFGINSGKKMTISKSEVLKRGTIQDCSSTCGVATITCSLLPSDLSQVNVSLLLWKPTFIRAHFSSLNLTLRGELKSENSSLTLSSSNRKRELAIQISKDGLPGRVPLWVILLSAFAGLLLLMLLILALWKIGFFKRPLKKKMEK
chain 2: QTDKNRCLKANAKSCGECIQAGPNCGWCTNTTFLQEGMPTSARCDDLEALKKKGCHPSDIENPRGSQTIKKNKNVTNRSKGMAEKLRPEDITQIQPQQLLLKLRSGEPQKFTLKFKRAEDYPIDLYYLMDLSYSMKDDLENVKSLGTDLMNEMRRITSDFRIGFGSFVEKTVMPYISTTPAKLRNPCTSEQNCTSPFSYKNVLSLTDRGEFFNELVGQQRISGNLDSPEGGFDAIMQVAVCGSLIGWRNVTRLLVFSTDAGFHFAGDGKLGGIVLPNDGQCHLENNVYTMSHYYDYPSIAHLVQKLSENNIQTIFAVTEEFQPVYKELKNLIPKSAVGTLSGNSSNVIQLIIDAYNSLSSEVILENSKLPDGVTINYKSYCKNGVNGTGENGRKCSNISIGDEVQFEISITANKCPNKESENQLKLNPLGFTEEVEVVLQFICKCNCQSHGIPASPKCHEGNGTFECGACRCNEGRVGRHCECSTDEVNSEDMDAYCRKENSSEICSNNGECVCGQCVCRKRENTNEIYSGKFCECDNFNCDRSNGLICGGNGVCRCRVCECYPNYTGSACDCSLDTVPCVATNGQICNGRGICECGACKCTDPKFQGPTCETCQTCLGVCAEHKECVQCRAFNKGEKKDTCAQECSHFNLTKVESREKLPQPVQVDPVTHCKEKDIDDCWFYFTYSVNSKGEAHVHVVETPDCPTGPDIIPIVAGVVAGIVLIGLALLLIWKLLMIIHDRREFAKFEKEKMNAKWDTGENPIYKSAVTTVVNPKYEGK
On to B1, for which the “adhesion relative to that on II-27” value in assay [1] and in assay [2] was around 40% each time.
